# Data published in IntAct's records for PubMed 17981123.
# B1: Serine endoprotease DegS (Escherichia coli (strain K12)), P0AEE3 (parent)
# chain: MFVKLLRSVAIGLIVGAILLVAMPSLRSLNPLSTPQFDSTDETPASYNLAVRRAAPAVVNVYNRGLNTNSHNQLEIRTLGSGVIMDQRGYIITNKHVINDADQIIVALQDGRVFEALLVGSDSLTDLAVLKINATGGLPTIPINARRVPHIGDVVLAIGNPYNLGQTITQGIISATGRIGLNPTGRQNFLQTDASINHGNSGGALVNSLGELMGINTLSFDKSNDGETPEGIGFAIPFQLATKIMDKLIRDGRVIRGYIGIGGREIAPLHAQGGGIDQLQGIVVNEVSPDGPAANAGIQVNDLIISVDNKPAISALETMDQVAEIRPGSVIPVVVMRDDKQLTLQVTIQEYPATN
# partner: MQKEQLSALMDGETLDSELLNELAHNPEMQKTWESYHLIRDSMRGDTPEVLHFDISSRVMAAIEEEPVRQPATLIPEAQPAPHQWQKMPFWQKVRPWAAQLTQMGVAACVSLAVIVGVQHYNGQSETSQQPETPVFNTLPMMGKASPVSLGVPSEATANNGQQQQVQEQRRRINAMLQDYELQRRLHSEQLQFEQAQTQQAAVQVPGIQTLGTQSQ
# Variants of: B1
# Conditions: with rsea_ecoli rseA
row,Variant,effect of a mutation on the interaction
1,MFVKLLRSVAIGLIVGAILLVAMPSLRSLNPLSTPQFDSTDETPASYNLAVRRAAPAVVNVYNRGLNTNSHNQLEIRTLGSGVIMDQRGYIITNKHVINDADQIIVALQDGRVFEALLVGSDSLTDLAVLKINATGGLPTIPINARRVPHIGDVVLAIGNPYNLGQTITQGIISATGRIGLNPTGRQNFLQTDASINHGNSGGALVNSLGELMGINTLSFDKSNDGETPEGIGFAIPFQLATKIMDKLIRDGRVIAGYIGIGGREIAPLHAQGGGIDQLQGIVVNEVSPDGPAANAGIQVNDLIISVDNKPAISALETMDQVAEIRPGSVIPVVVMRDDKQLTLQVTIQEYPATN [R256A],increasing interaction
2,MFVKLLRSVAIGLIVGAILLVAMPSLRSLNPLSTPQFDSTDETPASYNLAVRRAAPAVVNVYNRGLNTNSHNQLEIRTLGSGVIMDQRGYIITNKHVINDADQIIVALQDGRVFEALLVGSDSLTDLAVLKINATGGLPTIPINARRVPHIGDVVLAIGNPANLGQTITQGIISATGRIGLNPTGRQNFLQTDASINHGNSGGALVNSLGELMGINTLSFDKSNDGETPEGIGFAIPFQLATKIMDKLIRDGRVIRGYIGIGGREIAPLHAQGGGIDQLQGIVVNEVSPDGPAANAGIQVNDLIISVDNKPAISALETMDQVAEIRPGSVIPVVVMRDDKQLTLQVTIQEYPATN [Y162A],disrupting interaction
3,MFVKLLRSVAIGLIVGAILLVAMPSLRSLNPLSTPQFDSTDETPASYNLAVRRAAPAVVNVYNRGLNTNSHNQLEIRTLGSGVIMDQRGYIITNKHVINDADQIIVALQDGRVFEALLVGSDSLTDLAVLKINATGGLPTIPINARRVPHIGDVVLAIGNPFNLGQTITQGIISATGRIGLNPTGRQNFLQTDASINHGNSGGALVNSLGELMGINTLSFDKSNDGETPEGIGFAIPFQLATKIMDKLIRDGRVIRGYIGIGGREIAPLHAQGGGIDQLQGIVVNEVSPDGPAANAGIQVNDLIISVDNKPAISALETMDQVAEIRPGSVIPVVVMRDDKQLTLQVTIQEYPATN [Y162F],decreasing interaction
4,MFVKLLRSVAIGLIVGAILLVAMPSLRSLNPLSTPQFDSTDETPASYNLAVRRAAPAVVNVYNRGLNTNSHNQLEIRTLGSGVIMDQRGYIITNKHVINDADQIIVALQDGRVFEALLVGSASLTDLAVLKINATGGLPTIPINARRVPHIGDVVLAIGNPYNLGQTITQGIISATGRIGLNPTGRQNFLQTDASINHGNSGGALVNSLGELMGINTLSFDKSNDGETPEGIGFAIPFQLATKIMDKLIRDGRVIRGYIGIGGREIAPLHAQGGGIDQLQGIVVNEVSPDGPAANAGIQVNDLIISVDNKPAISALETMDQVAEIRPGSVIPVVVMRDDKQLTLQVTIQEYPATN [D122A],decreasing interaction
5,MFVKLLRSVAIGLIVGAILLVAMPSLRSLNPLSTPQFDSTDETPASYNLAVRRAAPAVVNVYNRGLNTNSHNQLEIRTLGSGVIMDQRGYIITNKHVINDADQIIVALQDGRVFEALLVGSDSLTDLAVLKINATGGLPTIPINARRVPHIGDVVLAIGNPYNLGQTITQGIISATGRIGLNPTGRQNFLQTDASINHGNSGGALVNSLGELMGINTLSFDKSNDGATPEGIGFAIPFQLATKIMDKLIRDGRVIRGYIGIGGREIAPLHAQGGGIDQLQGIVVNEVSPDGPAANAGIQVNDLIISVDNKPAISALETMDQVAEIRPGSVIPVVVMRDDKQLTLQVTIQEYPATN [E227A],increasing interaction
6,MFVKLLRSVAIGLIVGAILLVAMPSLRSLNPLSTPQFDSTDETPASYNLAVRRAAPAVVNVYNRGLNTNSHNQLEIRTLGSGVIMDQRGYIITNKHVINDADQIIVALQDGRVFEALLVGSDSLTDLAVLKINATGGLPTIPINARRVPHIGDVVLAIGNPYNLGQTITQGIISATGAIGLNPTGRQNFLQTDASINHGNSGGALVNSLGELMGINTLSFDKSNDGETPEGIGFAIPFQLATKIMDKLIRDGRVIRGYIGIGGREIAPLHAQGGGIDQLQGIVVNEVSPDGPAANAGIQVNDLIISVDNKPAISALETMDQVAEIRPGSVIPVVVMRDDKQLTLQVTIQEYPATN [R178A],decreasing interaction

# The next lines start with the values.
row,effect of a mutation on the interaction,Variant
1,increasing interaction,MFVKLLRSVAIGLIVGAILLVAMPSLRSLNPLSTPQFDSTDETPASYNLAVRRAAPAVVNVYNRGLNTNSHNQLEIRTLGSGVIMDQRGYIITNKHVINDADQIIVALQDGRVFEALLVGSDSLTDLAVLKINATGGLPTIPINARRVPHIGDVVLAIGNPYNLGQTITQGIISATGRIGLNPTGRQNFLQTDASINHGNSGGALVNSLGELMGINTLSFDKSNDGETPEGIGFAIPFQLATKIMDKLIRDGRVIRGYIGIGGREIAPLHAQGGGIDQLQGIVVNEVSPDGPAANAGIQVNDLIISVDNKPAISALETMAQVAEIRPGSVIPVVVMRDDKQLTLQVTIQEYPATN [D320A]
2,increasing interaction,MFVKLLRSVAIGLIVGAILLVAMPSLRSLNPLSTPQFDSTDETPASYNLAVRRAAPAVVNVYNRGLNTNSHNQLEIRTLGSGVIMDQRGYIITNKHVINDADQIIVALQDGRVFEALLVGSDSLTDLAVLKINATGGLPTIPINARRVPHIGDVVLAIGNPYNLGQTITQGIISATGRIGLNPTGRQNFLQTDASINHGNSGGALVNSLGELMGINTLSFDKSNDGETPEGIGFAIPFQLATDIMDKLIRDGRVIRGYIGIGGREIAPLHAQGGGIDQLQGIVVNEVSPDGPAANAGIQVNDLIISVDNKPAISALETMDQVAEIRPGSVIPVVVMRDDKQLTLQVTIQEYPATN [K243D]
3,decreasing interaction,MFVKLLRSVAIGLIVGAILLVAMPSLRSLNPLSTPQFDSTDETPASYNLAVRRAAPAVVNVYNRGLNTNSHNQLEIRTLGSGVIMDQRGYIITNKHVINDADQIIVALQDGRVFEALLVGSDSLTDLAVLKINATGGLPTIPINARRVPHIGDVVLAIGNPYNLGQTITQGIISATGRIGLNPTGRQNFLQTDASINHGNSGGALVNSLGELMGINTLSFDKSNDGETPEGIGFAIPFQLATKIMDKLIRDGRVIDGYIGIGGREIAPLHAQGGGIDQLQGIVVNEVSPDGPAANAGIQVNDLIISVDNKPAISALETMDQVAEIRPGSVIPVVVMRDDKQLTLQVTIQEYPATN [R256D]
